Tests used:
[1] = target: neural retina leucine zipper (NRL), V5-tagged (UniProt P54845); test: co-immunoprecipitation, band densitometry normalized to input; settings: COS-1 cells cotransfected; IP goat anti-V5; detection mouse anti-Xpress; parent: est. 100; read off a plot
[2] = target: cone-rod homeobox (CRX), V5-tagged (UniProt O43186); test: as above; settings: COS-1 cells cotransfected; detection mouse anti-Xpress; parent: est. 100; read off a plot
cone-rod homeobox (CRX), V5-tagged, sequence (O43186 whole entry): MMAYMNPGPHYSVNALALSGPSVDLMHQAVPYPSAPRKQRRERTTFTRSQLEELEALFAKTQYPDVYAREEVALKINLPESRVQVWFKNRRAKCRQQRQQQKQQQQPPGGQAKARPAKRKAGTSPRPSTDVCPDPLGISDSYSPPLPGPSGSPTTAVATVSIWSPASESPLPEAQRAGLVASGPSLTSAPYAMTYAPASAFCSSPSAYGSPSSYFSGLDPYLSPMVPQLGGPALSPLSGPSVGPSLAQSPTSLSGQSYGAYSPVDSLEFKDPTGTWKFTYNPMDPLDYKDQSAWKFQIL

neural retina leucine zipper (NRL), V5-tagged, sequence (P54845 whole entry): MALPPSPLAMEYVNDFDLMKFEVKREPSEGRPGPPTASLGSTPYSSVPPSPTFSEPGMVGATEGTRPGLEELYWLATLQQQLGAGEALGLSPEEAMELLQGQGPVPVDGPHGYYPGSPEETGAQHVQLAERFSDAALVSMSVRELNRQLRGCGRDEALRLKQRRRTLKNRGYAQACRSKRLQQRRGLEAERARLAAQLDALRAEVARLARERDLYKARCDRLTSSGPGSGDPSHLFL
photoreceptor-specific nuclear receptor NR2E3 (nuclear receptor subfamily 2 group E member 3), wild type, Q9Y5X4-1 p.R334G, sequence (Q9Y5X4 whole entry R334G): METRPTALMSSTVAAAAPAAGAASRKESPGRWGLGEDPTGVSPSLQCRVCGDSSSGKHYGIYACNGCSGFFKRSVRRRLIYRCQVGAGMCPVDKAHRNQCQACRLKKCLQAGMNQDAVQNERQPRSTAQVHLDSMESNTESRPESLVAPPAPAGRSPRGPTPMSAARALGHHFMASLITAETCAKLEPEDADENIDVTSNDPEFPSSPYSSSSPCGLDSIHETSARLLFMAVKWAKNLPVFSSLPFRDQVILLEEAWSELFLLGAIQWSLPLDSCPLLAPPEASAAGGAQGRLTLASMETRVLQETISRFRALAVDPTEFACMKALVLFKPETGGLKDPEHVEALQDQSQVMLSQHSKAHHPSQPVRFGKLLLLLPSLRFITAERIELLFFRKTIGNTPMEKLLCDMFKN
photoreceptor-specific nuclear receptor NR2E3 (nuclear receptor subfamily 2 group E member 3), wild type, Q9Y5X4-1 p.G56R, sequence (Q9Y5X4 whole entry G56R): as the sequence (Q9Y5X4 whole entry R334G) above, with G56R, G334R counted along it
photoreceptor-specific nuclear receptor NR2E3 (nuclear receptor subfamily 2 group E member 3), wild type, Q9Y5X4-1 p.R97H, sequence (Q9Y5X4 whole entry R97H): as the sequence (Q9Y5X4 whole entry R334G) above, with R97H, G334R counted along it
photoreceptor-specific nuclear receptor NR2E3 (nuclear receptor subfamily 2 group E member 3), wild type, Q9Y5X4-1 p.W234S, sequence (Q9Y5X4 whole entry W234S): as the sequence (Q9Y5X4 whole entry R334G) above, with W234S, G334R counted along it
photoreceptor-specific nuclear receptor NR2E3 (nuclear receptor subfamily 2 group E member 3), wild type, Q9Y5X4-1 p.V302I, sequence (Q9Y5X4 whole entry V302I): as the sequence (Q9Y5X4 whole entry R334G) above, with V302I, G334R counted along it
photoreceptor-specific nuclear receptor NR2E3 (nuclear receptor subfamily 2 group E member 3), wild type, Q9Y5X4-1 p.R76W, sequence (Q9Y5X4 whole entry R76W): as the sequence (Q9Y5X4 whole entry R334G) above, with R76W, G334R counted along it
photoreceptor-specific nuclear receptor NR2E3 (nuclear receptor subfamily 2 group E member 3), wild type, Q9Y5X4-1 p.R76Q, sequence (Q9Y5X4 whole entry R76Q): as the sequence (Q9Y5X4 whole entry R334G) above, with R76Q, G334R counted along it
photoreceptor-specific nuclear receptor NR2E3 (nuclear receptor subfamily 2 group E member 3), wild type, Q9Y5X4-1 p.V232I, sequence (Q9Y5X4 whole entry V232I): as the sequence (Q9Y5X4 whole entry R334G) above, with V232I, G334R counted along it
photoreceptor-specific nuclear receptor NR2E3 (nuclear receptor subfamily 2 group E member 3), wild type, Q9Y5X4-1 p.R104Q, sequence (Q9Y5X4 whole entry R104Q): as the sequence (Q9Y5X4 whole entry R334G) above, with R104Q, G334R counted along it
photoreceptor-specific nuclear receptor NR2E3 (nuclear receptor subfamily 2 group E member 3), wild type, Q9Y5X4-1 p.L353V, sequence (Q9Y5X4 whole entry L353V): as the sequence (Q9Y5X4 whole entry R334G) above, with G334R, L353V counted along it

Row | percent of parent [1] | percent of parent [2] | Substance
1 | 37% | 60% | photoreceptor-specific nuclear receptor NR2E3 (nuclear receptor subfamily 2 group E member 3), wild type, Q9Y5X4-1 p.R385P
2 | 10% | 30% | photoreceptor-specific nuclear receptor NR2E3 (nuclear receptor subfamily 2 group E member 3), wild type, Q9Y5X4-1 p.L353V
3 | 120% | 87% | photoreceptor-specific nuclear receptor NR2E3 (nuclear receptor subfamily 2 group E member 3), wild type, Q9Y5X4-1 p.E121K
4 | 74% | 44% | photoreceptor-specific nuclear receptor NR2E3 (nuclear receptor subfamily 2 group E member 3), wild type, Q9Y5X4-1 p.R311Q
5 | 62% | 55% | photoreceptor-specific nuclear receptor NR2E3 (nuclear receptor subfamily 2 group E member 3), wild type, Q9Y5X4-1 p.A256E
6 | 87% | 87% | photoreceptor-specific nuclear receptor NR2E3 (nuclear receptor subfamily 2 group E member 3), wild type, Q9Y5X4-1 p.V232I
7 | 100% | 84% | photoreceptor-specific nuclear receptor NR2E3 (nuclear receptor subfamily 2 group E member 3), wild type, Q9Y5X4-1 p.N65_C67del
8 | 100% | 42% | photoreceptor-specific nuclear receptor NR2E3 (nuclear receptor subfamily 2 group E member 3), wild type, Q9Y5X4-1 p.R104Q
9 | 110% | 95% | photoreceptor-specific nuclear receptor NR2E3 (nuclear receptor subfamily 2 group E member 3), wild type, Q9Y5X4-1 p.R76Q
10 | 98% | 88% | photoreceptor-specific nuclear receptor NR2E3 (nuclear receptor subfamily 2 group E member 3), wild type, Q9Y5X4-1 p.R76W
11 | 10% | 32% | photoreceptor-specific nuclear receptor NR2E3 (nuclear receptor subfamily 2 group E member 3), wild type, Q9Y5X4-1 p.L336P
12 | 58% | 95% | photoreceptor-specific nuclear receptor NR2E3 (nuclear receptor subfamily 2 group E member 3), wild type, Q9Y5X4-1 p.W234S
13 | 61% | 76% | photoreceptor-specific nuclear receptor NR2E3 (nuclear receptor subfamily 2 group E member 3), wild type, Q9Y5X4-1 p.M407K
14 | 56% | 86% | photoreceptor-specific nuclear receptor NR2E3 (nuclear receptor subfamily 2 group E member 3), wild type, Q9Y5X4-1 p.V302I
15 | 69% | 81% | photoreceptor-specific nuclear receptor NR2E3 (nuclear receptor subfamily 2 group E member 3), wild type, Q9Y5X4-1 p.R334G
16 | 110% | 99% | photoreceptor-specific nuclear receptor NR2E3 (nuclear receptor subfamily 2 group E member 3), wild type, Q9Y5X4-1 p.G88V
17 | 110% | 43% | photoreceptor-specific nuclear receptor NR2E3 (nuclear receptor subfamily 2 group E member 3), wild type, Q9Y5X4-1 p.R97H
18 | 110% | 48% | photoreceptor-specific nuclear receptor NR2E3 (nuclear receptor subfamily 2 group E member 3), wild type, Q9Y5X4-1 p.G56R
19 | 37% | 55% | photoreceptor-specific nuclear receptor NR2E3 (nuclear receptor subfamily 2 group E member 3), wild type, Q9Y5X4-1 p.R309G
20 | 16% | 24% | photoreceptor-specific nuclear receptor NR2E3 (nuclear receptor subfamily 2 group E member 3), wild type, Q9Y5X4-1 p.L263P

Source: PMC2773741
